Literature values as cited in patent US5593962A, “Fibrillated calcitonin pharmaceutical compositions” (Ciba-Geigy Corporation, priority 1991, dated 1997).

Columns and labels:
[1] = physiological saline solutions or buffers

## human calcitonin
After prolonged administration
  generation of neutralizing antibodies: not generating neutralizing antibodies
In vivo
  potency relative to salmon calcitonin: less potent
[1]
  stability in solution: not stable
